Experimental findings from publication PMC9922282, “Small molecule inhibitors of 15-PGDH exploit a physiologic induced-fit closing system” (Nature Communications, 2023) are described below.

Substitutions are numbered along the chain they refer to. Names and notes keep the numbering of the source.

In one data set the target is T1, 15-PGDH (Homo sapiens, UniProt P15428).
T1 construct: gene HPGD; recombinant human 15-PGDH with C-terminal TEV-cleavable 6xHis tag, homodimer
T1 sequence (P15428 1-256): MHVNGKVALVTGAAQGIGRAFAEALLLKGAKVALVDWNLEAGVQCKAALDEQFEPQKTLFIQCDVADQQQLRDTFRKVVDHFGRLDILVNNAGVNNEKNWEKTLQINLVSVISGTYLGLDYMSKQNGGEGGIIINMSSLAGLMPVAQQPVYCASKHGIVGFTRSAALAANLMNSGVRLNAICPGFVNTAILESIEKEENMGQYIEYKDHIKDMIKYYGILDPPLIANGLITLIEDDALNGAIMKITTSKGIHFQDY
Nature of the data set: cryo-EM structure of the 15-PGDH-NADH complex ([…] Å); thermal shift. It is filed as binding.

Substrate in data set [1]: CCCCC[C@H](O)/C=C/[C@H]1[C@H](O)CC(=O)[C@@H]1C/C=C\CCCC(=O)O
Nature of the data set: Michaelis-Menten kinetics of PGE2 oxidation (Km). Particulars: NAD+ active site. It is filed as biochemical, Homo sapiens.

For the molecule `NC(=O)C1=CN([C@@H]2O[C@H](COP(=O)(O)OP(=O)(O)OC[C@H]3O[C@@H](n4cnc5c(N)ncnc54)[C@H](O)[C@@H]3O)[C@@H](O)[C@H]2O)C=CC1` [NADH], on 15-PGDH, the “cryo-EM structure of the 15-PGDH-NADH complex (3.3 Å); thermal shift” value is “we employed cryo-EM to solve the structure of the 15-PGDH-NADH complex in the absence of inhibitor”.

B1: 15-PGDH (Homo sapiens) (protein)
chain: MHVNGKVALVTGAAQGIGRAFAEALLLKGAKVALVDWNLEAGVQCKAALDEQFEPQKTLFIQCDVADQQQLRDTFRKVVDHFGRLDILVNNAGVNNEKNWEKTLQINLVSVISGTYLGLDYMSKQNGGEGGIIINMSSLAGLMPVAQQPVYCASKHGIVGFTRSAALAANLMNSGVRLNAICPGFVNTAILESIEKEENMGQYIEYKDHIKDMIKYYGILDPPLIANGLITLIEDDALNGAIMKITTSKGIHFQDYDTTPFQAKTQ
notes: recombinant human 15-PGDH with C-terminal TEV-cleavable 6xHis tag
Take B1: the Michaelis-Menten constant (Km) – broadly, the substrate concentration at which the rate is half of its maximum – in data set [1] turned out to be 2.2 µM.

B2: 15-PGDH (Homo sapiens; Y217A) (protein)
chain: B1 chain with Y217A
notes: as for B1
As to B2, the Michaelis-Menten constant (Km) in data set [1] is 11 µM.
